Assay [1] concerns the target T1, recombinant human CD160 protein, soluble form, with a C-terminal tag of 6 histidine residues (R&D SYSTEMS) (human, UniProt O95971 27-159, limits assumed, biotinylated with EZ-Link sulfo-NHS-LC-biotin for BLI and ELISA; not biotinylated when immobilised on the CM5 chip for SPR).
T1 construct: domain: soluble form; Bought protein; also called hCD160-his; biotinylated CD160
T1 sequence: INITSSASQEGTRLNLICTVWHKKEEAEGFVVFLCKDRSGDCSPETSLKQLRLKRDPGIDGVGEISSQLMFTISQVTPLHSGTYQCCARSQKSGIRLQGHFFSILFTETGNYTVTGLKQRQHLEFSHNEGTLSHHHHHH
In words: BLI.

The target of assay [2] is T1, recombinant human CD160 protein, …. In words: BLI (repeats Table 7).
The target of assay [3] is T2, human CD160 (CD160 GPI isoform) on cells (human, UniProt O95971 25-159, GPI anchor).
T2 construct: whole, on cells; Used for all cells said to carry human CD160: transfected CHO-S and E300 cells and cells that carry it naturally (YT2C2, blood NK, CD8+ T, T CD4, CLL cells); also called hCD160; CHO-S-hCD160 (clone 2G10)
T2 sequence (looked up): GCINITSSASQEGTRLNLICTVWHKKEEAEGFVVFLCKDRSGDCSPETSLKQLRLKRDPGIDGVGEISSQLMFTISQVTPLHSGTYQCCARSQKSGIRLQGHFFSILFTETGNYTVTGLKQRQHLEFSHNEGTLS
In words: flow cytometry on CHO-hCD160 transfectants. As for the experimental part: The binding capacity of the anti-CD160 H7 antibodies and of the variants (D12 and A09) thereof in the IgG4 and IgG1 format and in the IgG1 E345K format was evaluated during the labelling of surface CD160 expressed in a recombinant line CHO-S-hCD160 (clone 2G10) in comparison with non-transfected CHO-S cells, by measuring the median fluorescence index (MFI) (see FIG. 1). For this, 5×10⁺⁵ 2G10 (CHO-S-CD160) and non-transfected CHO-S cells were labelled with 2 μg of each of these antibodies and also with the appropriate control isotypes. In FIG. 1, all the anti-CD160 tested (regardless of the isotype or the IgG format or the variant) specifically recognize human CD160 expressed recombinantly by the CHO-S cells.
In FIG. 1B, the IgG4 variants bind more efficiently to the CHO-hCD160 transfectants than H7 (which results in a median fluorescence increased by a factor of 2 compared with H7 IgG4 ELB01101 or with H7 IgG4 H310A-H435Q ELB01102), this being even in the presence of the H310A-H435Q mutations.
Background: In flow cytometry, cells or beads pass a laser one at a time.

Assay [4] concerns the target T1, recombinant human CD160 protein, …. The experiment in a line: SPR (Biacore), design close to Example 2. In general terms: In SPR one partner is held on a chip, and binding of the other changes the refractive index at the surface.
Assay [5] shares this target. The experiment in a line: BLI, biotinylated CD160 at 10 nM on streptavidin sensor, antibody 3.13-100 nM. As for the experimental part: The dissociation constants and the association (kₒₙ) and dissociation (kdis) rate constants for each antibody were calculated by applying a 1:1 interaction model, with overall mathematical modelling of curves (fit) (Rmax bound by the sensor) on the ForteBio 9.0 data analysis software.
On the technique in general: Biolayer interferometry detects binding as a change in optical thickness at a sensor tip.

Assay [6] has as its target T2, human CD160 (CD160 GPI isoform) on cells. The experiment in a line: flow cytometry, percentage of labelled YT2C2 NK cells, antibody 0.39-50 nM; the text means better binding. As for the experimental part:
(§1) The binding capacity of the anti-CD160 H7 antibody and of the H7 D12 variant in the IgG4, Fab and Fab-linker Fab format was evaluated during the labelling of surface CD160 expressed naturally on a clone of NK cell line (YT2C2), by measuring the percentage of cell labelled=percentage of binding (see FIG. 1C). For this, 2×10⁺⁵ YT2C2 cells were labelled with increasing concentration of antibodies (from 50 nM to 0.39 nM) and also with the appropriate control isotype. […] In FIG. 1C, IgG4 variants ELB01103 and ELB01104 bind more efficiently to the YT2C2 cells than the H7 IgG4 ELB01101 (which results in a EC₅₀ increased by a factor of 10 compared with H7 IgG4). This is also true for the Fab-linker-Fab format ELB01132. By contrast Fab format ELB01122 bind less efficiently to the YT2C2 cells than the H7 IgG4 ELB01101 (which results in a EC₅₀ decreased by a factor of 2 compared with H7 IgG4). This is certainly due to the monovalency of the Fab format.

Assay [7] shares this target. In words: flow cytometry, percentage of labelled YT2C2 NK cells (2x10^5 cells), antibody 0.39 to 50 nM [panel C]. As for the experimental part: as §1
For assay [8], the target named is T1, recombinant human CD160 protein, …. In words: BLI (repeats Table 8).
For assay [9] the target is unchanged. The experiment in a line: BLI, biotinylated CD160 at 10 nM on streptavidin sensor, antibody 3.13-100 nM. This is another data set of the same source.

B1: D12 IgG4 S228P/R409K (antibody)
heavy: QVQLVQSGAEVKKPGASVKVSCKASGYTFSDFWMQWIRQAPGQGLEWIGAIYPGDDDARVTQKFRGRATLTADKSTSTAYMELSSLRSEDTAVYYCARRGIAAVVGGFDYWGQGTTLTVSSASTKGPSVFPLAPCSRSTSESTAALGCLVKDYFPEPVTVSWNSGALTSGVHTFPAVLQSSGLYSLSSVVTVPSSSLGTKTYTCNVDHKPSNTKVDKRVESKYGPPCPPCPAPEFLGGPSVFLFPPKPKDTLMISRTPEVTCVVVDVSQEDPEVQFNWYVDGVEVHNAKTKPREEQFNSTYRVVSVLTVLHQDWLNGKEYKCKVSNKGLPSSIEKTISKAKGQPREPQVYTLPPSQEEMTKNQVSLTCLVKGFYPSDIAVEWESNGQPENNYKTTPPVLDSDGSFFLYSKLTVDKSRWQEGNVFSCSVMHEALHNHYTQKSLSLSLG
light: EIVLTQSPATLSLSPGERATLSCRASQSISNHLHWYQQKPGQAPRLLIKYASQSISGIPARFSGSGSGTDFTLTISSLEPEDFAVYFCQQSNSWPLTFGGGTKVEIKRTVAAPSVFIFPPSDEQLKSGTASVVCLLNNFYPREAKVQWKVDNALQSGNSQESVTEQDSKDSTYSLSSTLTLSKADYEKHKVYACEVTHQGLSSPVTKSFNRGEC
notes: also called ELB01103; H7 IgG4 D12
Turning to B1, the “Gain in KD/respective IgG” value in assay [1] is 1.7 fold. Besides, in [2], the Kd came out at 1.52 nM, the koff was 0.000752 s⁻¹ and the kon worked out at 494000 M⁻¹ s⁻¹. Moreover, the “median fluorescence, factor against H7 IgG4 ELB01101” value in [3] was determined as 2 fold. Besides, in assay [4], the “Gain in KD/respective IgG” value came to 3.1 fold, the Kd stood at 4.2 nM, the koff stood at 0.00122 s⁻¹ and the kon came out at 292000 M⁻¹ s⁻¹. Also, in assay [5], the Kd is 1.52 nM, the dissociation rate constant (koff) came out at 0.000752 s⁻¹ and the kon stood at 494000 M⁻¹ s⁻¹. For the same molecule, in assay [6], the “EC50, factor against H7 IgG4 (ELB01101)” value turned out to be 10 fold. In assay [7], the “EC50 (read off the curve)” value was roughly 3 nM.

B2: D12 IgG4 S228P/R409K/H310A/H435Q (antibody)
heavy: QVQLVQSGAEVKKPGASVKVSCKASGYTFSDFWMQWIRQAPGQGLEWIGAIYPGDDDARVTQKFRGRATLTADKSTSTAYMELSSLRSEDTAVYYCARRGIAAVVGGFDYWGQGTTLTVSSASTKGPSVFPLAPCSRSTSESTAALGCLVKDYFPEPVTVSWNSGALTSGVHTFPAVLQSSGLYSLSSVVTVPSSSLGTKTYTCNVDHKPSNTKVDKRVESKYGPPCPPCPAPEFLGGPSVFLFPPKPKDTLMISRTPEVTCVVVDVSQEDPEVQFNWYVDGVEVHNAKTKPREEQFNSTYRVVSVLTVLAQDWLNGKEYKCKVSNKGLPSSIEKTISKAKGQPREPQVYTLPPSQEEMTKNQVSLTCLVKGFYPSDIAVEWESNGQPENNYKTTPPVLDSDGSFFLYSKLTVDKSRWQEGNVFSCSVMHEALHNQYTQKSLSLSLG
light: B1 light
notes: also called ELB01104; H7 IgG4 D12 S228P/R409K/H310A/H435Q
For the molecule B2, the “Gain in KD/respective IgG” value in assay [1] stood at 2 fold. Moreover, in assay [8], the Kd is 1.49 nM, the koff is 0.000744 s⁻¹ and the on-rate (kon) amounted to 499000 M⁻¹ s⁻¹. Further, in [3], the “median fluorescence, factor against H7 IgG4 H310A-H435Q ELB01102” value turned out to be 2 fold. In assay [4], the “Gain in KD/respective IgG” value was determined as 2.9 fold, the equilibrium dissociation constant (Kd) turned out to be 5 nM, the off-rate (koff) came out at 0.00123 s⁻¹ and the on-rate constant (kon) came out at 244000 M⁻¹ s⁻¹. For the same molecule, in assay [9], the Kd was found to be 1.49 nM, the koff is 0.000744 s⁻¹ and the association rate constant (kon) amounted to 499000 M⁻¹ s⁻¹. Further, the “EC50, factor against H7 IgG4 (ELB01101)” value in assay [6] is 10 fold. In assay [7], the “EC50 (read off the curve)” value was roughly 3 nM.

By Kd is commonly meant the constant that tells how readily two partners part at equilibrium. One may read the koff as the first-order rate constant of dissociation. In general, kon refers to the rate constant with which the complex forms. As usually defined, the EC50 (read off the curve) is the concentration needed to bring the measured effect to its halfway point. Low readings indicate higher potency in that assay, high ones lower potency in that assay.

These data come from patent publication US20200109211A1 (ELSALYS BIOTECH, published 2020).
